Results reported in US20100015126A1, “Methods of Binding of Cross-Beta Structures By Chaperones” (priority 2006, published 2010).

Target: T1, BiP-Sepharose (Homo sapiens, UniProt P11021)
T1 construct: The human BiP gene except the signal peptide encoding region was obtained from Geneart (Germany); linker […]; made in house; host or cells: HEK 293E cells, transient transfection, PABC674 vector; secreted into the medium
Assay: BiP-Sepharose extraction of proteins from patient plasma, serum, synovial fluid and mass-spectrometric identification
Type: binding
Protocol: BiP was coated on CNBr-Sepharose (GE-Healthcare, Amersham Biosciences). Immobilization of BiP was performed essentially as described elsewhere in this application for NHS-Sepharose. CNBr-matrix was dissolved at 200 mg/ml in 1 mM HCl and treated the same as the NHS-matrix, except for an additional 5 minutes activation step in 1 mM HCl on a roller device before washing in this buffer. BiP was diluted in immobilization buffer (50 mM NaCl and 40 mM NaHCO3) to a concentration of 820 μg/ml. A total volume of 2 ml BiP solution (1640 μg BiP) was incubated with 360 mg beads. Negative control matrix was exposed to immobilization buffer, only. After overnight immobilization matrix was blocked with Tris and washed.
Six samples were incubated with the BiP-Sepharose, IgIV-Sepharose and the control-Sepharose: Normal pooled plasma, plasma of a patient I or of a patient II, with AL amyloidosis, serum of a patient III with RA (Rheumatoid Factor (RF) titer 682), control serum and synovial fluid of a patient IV with RA (RF titer 23). All samples were diluted 20× in HBS and applied to 200 μl beads in two volumes of 500 μl. One volume was incubated for 4 h at RT and supernatant was discarded after centrifugation (2 minutes at 1400 rpm). Subsequently, the second volume was applied to the same matrix and incubated overnight on a roller device at 4° C. […] To collect the eluates, the matrices were centrifuged and the two eluates were pooled for each sample.
Protein digests were desalted as described (Rappsilber et al., 2003), vacuum dried and dissolved in 2.5% formic acid.
For analysis of peptide mixtures, an Agilent 1100 HPLC system (Agilent Technologies) connected to a Thermo Finnigan LTQ-MS (Thermo Electron, Bremen, Germany) was used. Protein digests were injected on a trap column (Reprosil C18 RP (Dr Maisch, Germany), 20 mm×100 μm I.D.) at 5 μl/minute. Subsequently, the peptides were transferred with a split-reduced flow rate of 100 nL/minute solvent A (0.1 M acetic acid) on the analytical column (Reprosil C18 RP, 20 cm×50 μm I.D.). […] The column effluent was directly introduced into the ESI source of the mass spectrometer via a butt-connected nano-ESI emitter (New Objectives, Woburn, Mass.). The mass spectrometer was operated in the positive ion mode and parent ions were selected for fragmentation in data-dependent mode.
After mass spectrometric measurements, peak lists were generated using BioWorks software (Thermo Electron, Bremen, Germany). Protein identification was performed using Mascot software (www.matrixscience.com) by searching the IPIhuman database (version 3.24, downloaded from ftp://ftp.ebi.ac.uk/pub/databases/IPI/current) using the following settings: fully tryptic peptides, peptide tolerance 0.8 Da, MS/MS tolerance 0.9 Da, 1 missed cleavage allowed, carbamidomethyl (Cys) and oxidation (Met) as fixed and variable modification, respectively. The Scaffold software package (www.proteomesoftware.com) was used to parse the data and to filter peptides at a confidence level of 95%, allowing only protein identification with at least 2 peptides identified.

T1 sequence (P11021 19-654): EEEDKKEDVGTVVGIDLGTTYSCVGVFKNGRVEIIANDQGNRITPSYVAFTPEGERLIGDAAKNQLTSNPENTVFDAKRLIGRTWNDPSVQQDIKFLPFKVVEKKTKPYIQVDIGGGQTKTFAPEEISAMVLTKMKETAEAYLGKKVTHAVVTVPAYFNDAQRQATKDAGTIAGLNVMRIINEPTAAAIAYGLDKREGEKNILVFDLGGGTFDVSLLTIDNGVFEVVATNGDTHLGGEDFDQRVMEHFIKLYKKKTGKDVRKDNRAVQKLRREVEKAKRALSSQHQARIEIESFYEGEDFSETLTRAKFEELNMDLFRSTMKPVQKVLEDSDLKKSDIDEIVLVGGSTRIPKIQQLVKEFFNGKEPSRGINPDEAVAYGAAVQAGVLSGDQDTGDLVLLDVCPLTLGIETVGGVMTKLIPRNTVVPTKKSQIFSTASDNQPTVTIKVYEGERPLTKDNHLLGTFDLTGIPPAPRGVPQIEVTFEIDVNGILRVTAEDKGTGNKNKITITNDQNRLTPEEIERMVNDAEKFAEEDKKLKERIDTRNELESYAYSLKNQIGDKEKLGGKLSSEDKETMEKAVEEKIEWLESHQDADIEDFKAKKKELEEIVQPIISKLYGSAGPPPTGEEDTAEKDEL

B1: Hypothetical protein DKFZp686I04196 (Fragment)/Immunoglobulin heavy constant gamma 2 (G2m marker)/Ig gamma-2 chain C region (protein)
chain: ASTKGPSVFPLAPCSRSTSESTAALGCLVKDYFPEPVTVSWNSGALTSGVHTFPAVLQSSGLYSLSSVVTVPSSNFGTQTYTCNVDHKPSNTKVDKTVERKCCVECPPCPAPPVAGPSVFLFPPKPKDTLMISRTPEVTCVVVDVSHEDPEVQFNWYVDGVEVHNAKTKPREEQFNSTFRVVSVLTVVHQDWLNGKEYKCKVSNKGLPAPIEKTISKTKGQPREPQVYTLPPSREEMTKNQVSLTCLVKGFYPSDISVEWESNGQPENNYKTTPPMLDSDGSFFLYSKLTVDKSRWQQGNVFSCSVMHEALHNHYTQKSLSLSPGK
- # of peptides in sample A# (Sample B4: eluate of BiP-Sepharose contacted with RA patient III serum): 14

B2: Immunoglobulin heavy constant mu (protein)
chain: GSASAPTLFPLVSCENSPSDTSSVAVGCLAQDFLPDSITFSWKYKNNSDISSTRGFPSVLRGGKYAATSQVLLPSKDVMQGTDEHVVCKVQHPNGNKEKNVPLPVIAELPPKVSVFVPPRDGFFGNPRKSKLICQATGFSPRQIQVSWLREGKQVGSGVTTDQVQAEAKESGPTTYKVTSTLTIKESDWLGQSMFTCRVDHRGLTFQQNASSMCVPDQDTAIRVFAIPPSFASIFLTKSTKLTCLVTDLTTYDSVTISWTRQNGEAVKTHTNISESHPNATFSAVGEASICEDDWNSGERFTCTVTHTDLPSPLKQTISRPKGVALHRPDVYLLPPAREQLNLRESATITCLVTGFSPADVFVQWMQRGQPLSPEKYVTSAPMPEPQAPGRYFAHSILTVSEEEWNTGETYTCVVAHEALPNRVTERTVDKSTGKPTLYNVSLVMSDTAGTCY
- # of peptides in sample A# (Sample B6: eluate of BiP-Sepharose contacted with RA patient IV synovial fluid): 1
